Here are results for three proteins from publication PMC6986101, “The mitochondrial HSP90 paralog TRAP1 forms an OXPHOS-regulated tetramer and is involved in mitochondrial metabolic homeostasis” (BMC Biology, 2020).

In general, stoichiometry N refers to the number of molecules, sites or subunits per partner or assembly.

Series [1] deals with the molecule itself. In words: native gel or EMSA; clear native PAGE (6% or 8% Tris-glycine, 4 °C) of 30 μg mitochondrial extract, immunoblot with anti-TRAP1; cells also treated with hypoxia, oligomycin, rotenone, antimycin A or LDHi, or grown on different carbon sources.
Series [2] concerns the molecule itself. In words: affinity purification with mass spectrometry + native gel or EMSA; glutathione bead pull-down of TRAP1-GST from 1 mg mitochondrial lysate of transfected HEK293T cells, elution with 80 mM glutathione, 6% clear native gel, the stained complex band excised and analysed by LC/MS/MS; cutoff 11 unique peptides, GST alone as control.
Series [3] deals with the molecule itself. In words: native gel or EMSA; blue native PAGE (3-12%) of purified recombinant TRAP1 (20 and 5 ng), immunoblot with anti-TRAP1. Background: Mobility shift assays separate free from complexed probe on a gel.

B1: endogenous TRAP1 (natural protein, human (endogenous in HEK293T), UniProt Q12931 60-704, looked up)
chain: STQTAEDKEEPLHSIISSTESVQGSTSKHEFQAETKKLLDIVARSLYSEKEVFIRELISNASDALEKLRHKLVSDGQALPEMEIHLQTNAEKGTITIQDTGIGMTQEELVSNLGTIARSGSKAFLDALQNQAEASSKIIGQFGVGFYSAFMVADRVEVYSRSAAPGSLGYQWLSDGSGVFEIAEASGVRTGTKIIIHLKSDCKEFSSEARVRDVVTKYSNFVSFPLYLNGRRMNTLQAIWMMDPKDVREWQHEEFYRYVAQAHDKPRYTLHYKTDAPLNIRSIFYVPDMKPSMFDVSRELGSSVALYSRKVLIQTKATDILPKWLRFIRGVVDSEDIPLNLSRELLQESALIRKLRDVLQQRLIKFFIDQSKKDAEKYAKFFEDYGLFMREGIVTATEQEVKEDIAKLLRYESSALPSGQLTSLSEYASRMRAGTRNIYYLCAPNRHLAEHSPYYEAMKKKDTEVLFCFEQFDELTLLHLREFDKKKLISVETDIVVDHYKEEKFEDRSPAAECLSEKETEELMAWMRNVLGSRVTNVKVTLRLDTHPAMVTVLEMGAARHFLRMQQLAKTQEERAQLLQPTLEINPRHALIKKLNQLRASEPGLAQLLVDQIYENAMIAAGLVDDPRAMVGRLNELLVKALERH
notes: also called endogenous mitochondrial TRAP1; wild-type (WT) endogenous TRAP1; source: endogenous, mitochondrial extracts of HEK293T cells (also MCF-7, MDA-MB-134, PC3 and HCT116 cells)
Take B1: the “stoichiometry N” value in series [1] worked out at 4.

B2: TRAP1-GST fusion protein (natural protein, human, UniProt Q12931 60-704, looked up)
chain: STQTAEDKEEPLHSIISSTESVQGSTSKHEFQAETKKLLDIVARSLYSEKEVFIRELISNASDALEKLRHKLVSDGQALPEMEIHLQTNAEKGTITIQDTGIGMTQEELVSNLGTIARSGSKAFLDALQNQAEASSKIIGQFGVGFYSAFMVADRVEVYSRSAAPGSLGYQWLSDGSGVFEIAEASGVRTGTKIIIHLKSDCKEFSSEARVRDVVTKYSNFVSFPLYLNGRRMNTLQAIWMMDPKDVREWQHEEFYRYVAQAHDKPRYTLHYKTDAPLNIRSIFYVPDMKPSMFDVSRELGSSVALYSRKVLIQTKATDILPKWLRFIRGVVDSEDIPLNLSRELLQESALIRKLRDVLQQRLIKFFIDQSKKDAEKYAKFFEDYGLFMREGIVTATEQEVKEDIAKLLRYESSALPSGQLTSLSEYASRMRAGTRNIYYLCAPNRHLAEHSPYYEAMKKKDTEVLFCFEQFDELTLLHLREFDKKKLISVETDIVVDHYKEEKFEDRSPAAECLSEKETEELMAWMRNVLGSRVTNVKVTLRLDTHPAMVTVLEMGAARHFLRMQQLAKTQEERAQLLQPTLEINPRHALIKKLNQLRASEPGLAQLLVDQIYENAMIAAGLVDDPRAMVGRLNELLVKALERH
notes: TRAP1, human; the MTS is cleaved off upon import; Called one of the 'full-length TRAP1 proteins with different tags'; source: HEK293T, transfected, pulled down from mitochondrial lysate on glutathione beads and eluted with glutathione; not shown: GST, C-terminal, kept
For B2, the “stoichiometry N” value in series [2] amounted to 4.

B3: recombinant human TRAP1 (natural protein, UniProt Q12931 60-704, looked up)
chain: STQTAEDKEEPLHSIISSTESVQGSTSKHEFQAETKKLLDIVARSLYSEKEVFIRELISNASDALEKLRHKLVSDGQALPEMEIHLQTNAEKGTITIQDTGIGMTQEELVSNLGTIARSGSKAFLDALQNQAEASSKIIGQFGVGFYSAFMVADRVEVYSRSAAPGSLGYQWLSDGSGVFEIAEASGVRTGTKIIIHLKSDCKEFSSEARVRDVVTKYSNFVSFPLYLNGRRMNTLQAIWMMDPKDVREWQHEEFYRYVAQAHDKPRYTLHYKTDAPLNIRSIFYVPDMKPSMFDVSRELGSSVALYSRKVLIQTKATDILPKWLRFIRGVVDSEDIPLNLSRELLQESALIRKLRDVLQQRLIKFFIDQSKKDAEKYAKFFEDYGLFMREGIVTATEQEVKEDIAKLLRYESSALPSGQLTSLSEYASRMRAGTRNIYYLCAPNRHLAEHSPYYEAMKKKDTEVLFCFEQFDELTLLHLREFDKKKLISVETDIVVDHYKEEKFEDRSPAAECLSEKETEELMAWMRNVLGSRVTNVKVTLRLDTHPAMVTVLEMGAARHFLRMQQLAKTQEERAQLLQPTLEINPRHALIKKLNQLRASEPGLAQLLVDQIYENAMIAAGLVDDPRAMVGRLNELLVKALERH
notes: TRAP1, human, recombinant; probably without the MTS (surmise); Same material used for blue native PAGE and cryo-EM; also called purified recombinant TRAP1
Turning to B3, in series [3], the “stoichiometry N” value is 4.
